# Results as given in paper PMC8605372.
# Experiments:
# His169 = His169 (UniProt position 169, KSKVTHVMIRC); test: kinetics (stopped-flow fluorescence/FRET binding and displacement); conditions: 283 K according to Methods (stopped-flow binding and displacement) and the Figure S2 legend. Results text states 298 K.; 50 mM buffer, no added salt stated for the pH series; 50 mM acetate (pH 5.0, 5.5), 50 mM Bis-Tris (pH 6.0, 6.5), 50 mM Hepes (pH 7.0, 7.5), 50 mM Tris-HCl (pH 8.0); 2 mM DTT in all; Folded domain, cysteines reduced. The binding reaction with the phosphopeptide was followed, so the pKa is derived from both kon and koff.
# [1] = biological target: dansyl-Gab2(637-649) peptide (UniProt Q9UQC2); test: Stopped-flow fluorescence (FRET), displacement kinetics; conditions: 298 K in Results, 283 K in Methods (conflict in the article), no added salt (50 mM buffer only), 50 mM acetate at pH 5.0 and 5.5, 50 mM Bis-Tris at pH 6.0 and 6.5, 50 mM Hepes at pH 7.0 and 7.5, 50 mM Tris-HCl at pH 8
# [2] = biological target: dansyl-Gab2(637-649) peptide (UniProt Q9UQC2); test: Stopped-flow kinetics; K D from the rate constants of C1 and C2; conditions: 298 K in Results, 283 K in Methods (conflict in the article), no added salt (50 mM buffer only), 50 mM acetate at pH 5.0 and 5.5, 50 mM Bis-Tris at pH 6.0 and 6.5, 50 mM Hepes at pH 7.0 and 7.5, 50 mM Tris-HCl at pH 8
# [3] = biological target: dansyl-Gab2(637-649) peptide (UniProt Q9UQC2); test: Stopped-flow fluorescence (FRET Trp112 to dansyl), pseudo-first-order association kinetics; conditions: 298 K in Results, 283 K in Methods (conflict in the article), no added salt (50 mM buffer only), 50 mM acetate at pH 5.0 and 5.5, 50 mM Bis-Tris at pH 6.0 and 6.5, 50 mM Hepes at pH 7.0 and 7.5, 50 mM Tris-HCl at pH 8
# [4] = biological target: dansyl-Gab2(637-649) peptide (UniProt Q9UQC2); test: Stopped-flow fluorescence (FRET), pseudo-first-order association kinetics, ionic-strength series; conditions: pH 8.0, 298 K in Results, 283 K in Methods (conflict in the article)
Substance,k off ([1]; pH 5.0) [s⁻¹],k off ([1]; pH 5.5) [s⁻¹],k off ([1]; pH 6.0) [s⁻¹],k off ([1]; pH 6.5) [s⁻¹],k off ([1]; pH 7.0) [s⁻¹],k off ([1]; pH 7.5) [s⁻¹],k off ([1]; pH 8.0) [s⁻¹],K D ([2]; pH 5.0) [µM],K D ([2]; pH 5.5) [µM],K D ([2]; pH 6.0) [µM],K D ([2]; pH 6.5) [µM],K D ([2]; pH 7.0) [µM],K D ([2]; pH 7.5) [µM],K D ([2]; pH 8.0) [µM],k on ([3]; pH 5.0) [M⁻¹ s⁻¹],k on ([3]; pH 5.5) [M⁻¹ s⁻¹],k on ([3]; pH 6.0) [M⁻¹ s⁻¹],k on ([3]; pH 6.5) [M⁻¹ s⁻¹],k on ([3]; pH 7.0) [M⁻¹ s⁻¹],k on ([3]; pH 7.5) [M⁻¹ s⁻¹],other results
"Tyrosine-protein phosphatase non-receptor type 11 (SHP2), C-terminal SH2 domain (C-SH2) (Homo sapiens (inferred; organism not stated in the article))",–,–,–,–,–,–,–,–,–,–,–,–,–,–,–,–,–,–,–,–,pKa (His169): 7.1 ± 0.2
SHP2 C-SH2 domain H116A H116A,103,98,105,130,170,204,196,6.6,3.4,5.6,6.4,11,20,14,1.6e+07,2.9e+07,1.9e+07,2e+07,1.5e+07,1.1e+07,k on ([3]; pH 8.0): 1.4e+07 M⁻¹ s⁻¹
"SHP2 (PTPN11) C-terminal SH2 domain, wild type",80,79,112,141,147,234,210,3.8,2.8,4.7,6.9,6.8,17.2,21.3,2.11e+07,2.86e+07,2.41e+07,2e+07,2.2e+07,1.36e+07,"k on ([3]; pH 8.0): 9.9e+06 M⁻¹ s⁻¹; k on ([4]; highest of the series: 50 mM Tris-HCl + 150 mM NaCl, Tris-HCl 50 mM pH 8.0): 6.4e+06 ± 500000 M⁻¹ s⁻¹; k on ([4]; lowest of the series: 10 mM Tris-HCl, no NaCl, Tris-HCl 10 mM pH 8.0): 3.14e+07 ± 3.8e+06 M⁻¹ s⁻¹"

# Continued, in another order:
k off ([1]; pH 5.0) [s⁻¹],k off ([1]; pH 5.5) [s⁻¹],k off ([1]; pH 6.0) [s⁻¹],k off ([1]; pH 6.5) [s⁻¹],k off ([1]; pH 7.0) [s⁻¹],k off ([1]; pH 7.5) [s⁻¹],k off ([1]; pH 8.0) [s⁻¹],K D ([2]; pH 5.0) [µM],K D ([2]; pH 5.5) [µM],K D ([2]; pH 6.0) [µM],K D ([2]; pH 6.5) [µM],K D ([2]; pH 7.0) [µM],K D ([2]; pH 7.5) [µM],K D ([2]; pH 8.0) [µM],k on ([3]; pH 5.0) [M⁻¹ s⁻¹],k on ([3]; pH 5.5) [M⁻¹ s⁻¹],k on ([3]; pH 6.0) [M⁻¹ s⁻¹],k on ([3]; pH 6.5) [M⁻¹ s⁻¹],k on ([3]; pH 7.0) [M⁻¹ s⁻¹],k on ([3]; pH 7.5) [M⁻¹ s⁻¹],Substance,other results
92,102,148,125,144,253,263,8.5,3.2,2.9,5.2,4.7,12,12,1.08e+07,3.2e+07,5.2e+07,2.4e+07,3.1e+07,2.1e+07,SHP2 C-SH2 domain H114A H114A,k on ([3]; pH 8.0): 2.3e+07 M⁻¹ s⁻¹
80,69,91,143,168,219,287,3.6,2.4,2,10.4,8.5,12,27,2.2e+07,2.9e+07,4.5e+07,1.4e+07,2e+07,1.8e+07,SHP2 C-SH2 domain H132A H132A,k on ([3]; pH 8.0): 1.1e+07 M⁻¹ s⁻¹
125,114,116,132,125,172,162,5.3,2.9,5.4,3.4,3.4,13,13,2.4e+07,4e+07,2.1e+07,3.9e+07,3.7e+07,1.3e+07,SHP2 C-SH2 domain H196A H196A,k on ([3]; pH 8.0): 1.2e+07 M⁻¹ s⁻¹
154,127,149,226,183,225,148,14.3,4,7.4,25,23,17,10.8,1.1e+07,3.2e+07,2e+07,9e+06,8e+06,1.3e+07,SHP2 C-SH2 domain H143A H143A,k on ([3]; pH 8.0): 1.4e+07 M⁻¹ s⁻¹
